Paper PMC3794917

Legend:
[1] = molecular target: Rad51;Rad52 (Saccharomyces cerevisiae) (UniProt P06778); test: EMSA (glutaraldehyde-fixed, agarose); settings: Rad52 EMSA: 10 mM Tris-HCl pH 8, 5 mM MgCl2, 100 mM NaCl, 37 C, 10 min, 0.27 uM XV2, 8% native PAGE, filament assays: SEB buffer, 60 mM NaCl (or titrated) …, scale: mM NaCl
[2] = molecular target: Rad51;Rad52-L264P L264P (Saccharomyces cerevisiae) (UniProt P06778); test: EMSA (glutaraldehyde-fixed, agarose); settings: Rad52 EMSA: 10 mM Tris-HCl pH 8, 5 mM MgCl2, 100 mM NaCl, 37 C, 10 min, 0.27 uM XV2, 8% native PAGE, filament assays: SEB buffer, 60 mM NaCl (or titrated) …, scale: mM NaCl
[3] = molecular target: Rad51;Rad52 (Saccharomyces cerevisiae) (UniProt P06778); test: EM; settings: RPA pre-bound, 60 mM NaCl, Rad52 EMSA: 10 mM Tris-HCl pH 8, 5 mM MgCl2, 100 mM NaCl, 37 C, 10 min, 0.27 uM XV2, 8% native PAGE, filament assays: SEB buffer, 60 mM NaCl (or titrated) …
[4] = molecular target: Rad51;Rad52-L264P L264P (Saccharomyces cerevisiae) (UniProt P06778); test: EM; settings: RPA pre-bound, 60 mM NaCl (WT Rad52 55%); Rad52 EMSA: 10 mM Tris-HCl pH 8, 5 mM MgCl2, 100 mM NaCl, 37 C, 10 min, 0.27 uM XV2, 8% native PAGE; filament assays: SEB buffer, 60 mM NaCl (or titrated) …; scale: % of complete Rad51 filaments associated with Rad52-L264P

Sequence of Rad51;Rad52-L264P L264P (Saccharomyces cerevisiae) (P06778 whole entry L264P, looked up): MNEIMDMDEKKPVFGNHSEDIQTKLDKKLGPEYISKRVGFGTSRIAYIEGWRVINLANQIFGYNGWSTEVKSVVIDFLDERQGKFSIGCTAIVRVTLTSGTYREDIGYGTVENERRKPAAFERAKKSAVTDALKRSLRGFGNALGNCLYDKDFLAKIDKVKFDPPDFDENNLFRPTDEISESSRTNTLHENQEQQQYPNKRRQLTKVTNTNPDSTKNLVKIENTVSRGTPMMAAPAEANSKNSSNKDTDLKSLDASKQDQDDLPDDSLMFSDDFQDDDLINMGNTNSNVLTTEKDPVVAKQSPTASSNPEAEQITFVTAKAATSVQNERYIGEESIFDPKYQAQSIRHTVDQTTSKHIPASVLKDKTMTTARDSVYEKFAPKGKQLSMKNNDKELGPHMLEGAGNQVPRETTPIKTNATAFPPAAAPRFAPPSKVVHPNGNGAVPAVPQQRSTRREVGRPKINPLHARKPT
Sequence of Rad51;Rad52 (Saccharomyces cerevisiae) (P06778 whole entry, looked up): as the sequence (P06778 whole entry L264P, looked up) above, with P264L counted along it

Substance: 400-nt ssDNA fragment
- K half ([1]; RPA pre-bound, NaCl titration during assembly): 90
- K half [1]: 400
- K half ([2]; RPA pre-bound, NaCl added after assembly, no difference from WT): 400
- K half [2]: 90
- binding signal (% complete Rad51 filaments) ([3]; 55% of complete filaments carry Rad52): 48
- binding signal ([3]; scale: % of complete Rad51 filaments associated with Rad52): 55
- binding signal [4]: 74
